B1: CPEB3 Ribozyme (parent)
chain: UAACAGGGGGCCACAGCAGAAGCGUUCACGUCGCAGCCCCUGUCAGAUUCUGGUGAAUCUGCGAAUUCUGCUGUAUAUCUC

Variants of: B1
Assay: self-cleavage, relative activity (ratio to wild type); higher = more cleavage; in vitro, sequencing
How it was run: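 After error-prone PCR and barcoding, CPEB3 ribozyme mutant libraries were transcribed with T7 RNA polymerase at 37°C for 5 hours, then given 15 min with DNase I before an EDTA stop, and they cleaved during both steps. Reverse transcription with template switching preceded Illumina sequencing. Relative activity divides a variant's cleaved/total read fraction by the unmutated ribozyme's. At least 5 reads were required per variant, and three batches were averaged.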

Row | Variant | self-cleavage
1 | UAACAGGGGGCCACAGCAGAAGCGCUUACGUCGCAGCCCCUGUCAGAUUCUGGUGAAUCUGCGAAUUCUGCUGUAUAUCUC | 0.36
2 | UAACAGGGGGCCACAGCAGAAGCGCUAACGUCGCAGCCCCUGUCAGAUUCUGGUGAAUCUGCGAAUUCUGCUGUAUAUCUC | 0.41
3 | UAACAGGGGGCCACAGCAGAAGCGAUCACGUCGCAGCCCCUGUCAGAUUCUGGUGAAUCUGCGAAUUCAGCUGUAUAUCUC | 0.27
4 | UAACAGGGGGCCACAGCAGAAGCGAUCACGUCGCAGCCCCUGUCAGAUUCUGGUGAAUCUGCGAAUUCCGCUGUAUAUCUC | 0.25
5 | UAACAGGGGGCCACAGCAGAAGCGCUCACGUCGCAGUCCCUGUCAGAUUCUGGUGAAUCUGCGAAUUCUGCUGUAUAUCUC | 0.19
6 | UAACAGGGGGCCACAGCAGAAGCGCUCACGUCGCAGACCCUGUCAGAUUCUGGUGAAUCUGCGAAUUCUGCUGUAUAUCUC | 0.46
7 | UAACAGGGGGCCACAGCAGAAGCGCUCACGUCGCAGCCCAUGUCAGAUUCUGGUGAAUCUGCGAAUUCUGCUGUAUAUCUC | 0.15
8 | UAACAGGGGGCCACAGCAGAAGCGCUCACGUCGCAGCCCUUGUCAGAUUCUGGUGAAUCUGCGAAUUCUGCUGUAUAUCUC | 0.19
9 | UAACAGGGGGCCACAGCAGAAGCGCUCACGUCGCAGCCCCUGUUAGAUUCUGGUGAAUCUGCGAAUUCUGCUGUAUAUCUC | 0.23
10 | UAACAGGGGGCCACAGCAGAAGCGAUCACGUCGCAGCCCCUGUCAGAUUCUGGUGAAUCUGCGAAUUCUGCUGUAAAUCUC | 0.25
11 | UAACAGGGGGCCACAGCAGAAGCGAUCACGUCGCAGCCCCUGUCAGAUUCUGGUGAAUCUGCGAAUUCUGCUGUACAUCUC | 0.32
12 | UAACAGGGGGCCACAGCAGAAGCGCUCACGUCGCAGCUCCUGUCAGAUUCUGGUGAAUCUGCGAAUUCUGCUGUAUAUCUC | 0.68
13 | UAACAGGGGGCCACAGCAGAAGCGCUCACGUCGCAGCGCCUGUCAGAUUCUGGUGAAUCUGCGAAUUCUGCUGUAUAUCUC | 0.19
14 | UAACAGGGGGCCACAGCAGAAGCGCUCACGUCGCAGCACCUGUCAGAUUCUGGUGAAUCUGCGAAUUCUGCUGUAUAUCUC | 0.18
15 | UAACAGGGGGCCACAGCAGAAGCGCUCACGUCGCAGCCCCUGUCAGAUUCUGGUGAUUCUGCGAAUUCUGCUGUAUAUCUC | 0.31
16 | UAACAGGGGGCCACAGCAGAAGCGCUCACGUCGCAGCCCCUGUCAGAUUCUGGUGAGUCUGCGAAUUCUGCUGUAUAUCUC | 0.28
17 | UAACAGGGGGCCACAGCAGAAGCGCUCACGUCGCAGCCCCUGUCAGAUUCUGGUGACUCUGCGAAUUCUGCUGUAUAUCUC | 0.1

Row | Variant | self-cleavage
18 | UAACAGGGGGCCACAGCAGAAGCGAUCACGUCGCAGCCCCUGUCAGAUUCUGGUGAAUCUGCGAAUUCUGCCGUAUAUCUC | 0.22
19 | UAACAGGGGGCCACAGCAGAAGCGAUCACGUCGCAGCCCCUGUCAGAUUCUGGUGAAUCUGCGAAUUCUGCGGUAUAUCUC | 0.06
20 | UAACAGGGGGCCACAGCAGAAGCGAUCACGUCGCAGCCCCUGUCAGAUUCUGGUGAAUCUGCGAAUUCUGCAGUAUAUCUC | 0.3
21 | UAACAGGGGGCCACAGCAGAAGCGCUCACGUCGCAGCCCCUGUCAGAUUCUGGUGAAUCUGCGAAUUCUGCUGUAUAUCUC | 0.29
22 | UAACAGGGGGCCACAGCAGAAGCGAUCACGUCGCAGCCCCUGUCAGAUUCUGGUGAAUCUGCGAAUUCUGCUGUAUAACUC | 0.19
23 | UAACAGGGGGCCACAGCAGAAGCGAUCACGUCGCAGCCCCUGUCAGAUUCUGGUGAAUCUGCGAAUUCUGCUGUAUACCUC | 0.13
24 | UAACAGGGGGCCACAGCAGAAGCGAUCACGUCGCAGCCCCUGUCAGAUUCUGGUGAAUCUGCGAAUUCUGCUGUAUAGCUC | 0.37
25 | UAACAGGGGGCCACAGCAGAAGCGAUCACGUCGCAGCCCCUGUCAGAUUCUGGUGAAUCUGCGAAUCCUGCUGUAUAUCUC | 0.19
26 | UAACAGGGGGCCACAGCAGAAGCGCUCACGUCGGAGCCCCUGUCAGAUUCUGGUGAAUCUGCGAAUUCUGCUGUAUAUCUC | 0.27
27 | UAACAGGGGGCCACAGCAGAAGCGCUCACGUCGUAGCCCCUGUCAGAUUCUGGUGAAUCUGCGAAUUCUGCUGUAUAUCUC | 0.25
28 | UAACAGGGGGCCACAGCAGAAGCGAUCACGUCGCAGCCCCUGUCAGAUUCUGGUGAAUCUGCGAAUUCUGCUGCAUAUCUC | 0.33
29 | UAACAGGGGGCCACAGCAGAAGCGAUCACGUCGCAGCCCCUGUCAGAUUCUGGUGAAUCUGCGAAUUCUGCUGAAUAUCUC | 0.25
30 | UAACAGGGGGCCACAGCAGAAGCGCUCAUGUCGCAGCCCCUGUCAGAUUCUGGUGAAUCUGCGAAUUCUGCUGUAUAUCUC | 0.47
31 | UAACAGGGGGCCACAGCAGAAGCGCUCAGGUCGCAGCCCCUGUCAGAUUCUGGUGAAUCUGCGAAUUCUGCUGUAUAUCUC | 0.24
32 | UAACAGGGGGCCACAGCAGAAGCGCUCAAGUCGCAGCCCCUGUCAGAUUCUGGUGAAUCUGCGAAUUCUGCUGUAUAUCUC | 0.3
33 | UAACAGGGGGCCACAGCAGAAGCGAUCACGUCGCAGCCCCUGUCAGAUUCUGGUGAAUCUGCGAAUUCUGCUGUAUAUCAC | 0.45
34 | UAACAGGGGGCCACAGCAGAAGCGAUCACGUCGCAGCCCCUGUCAGAUUCUGGUGAAUCUGCGAAUUCUGCUGUAUAUCGC | 0.22

From the RNAGym collection of RNA variant scans (doi:10.1093/nar/gkz1192)
